Test results from publication PMC4015309, “Interaction of translationally controlled tumor protein with Apaf-1 is involved in the development of chemoresistance in HeLa cells” (BMC Cancer, 2014).

B1: TCTP-GST (GST-tagged recombinant TCTP) (natural protein, human, UniProt P13693 1-172, looked up)
chain: MIIYRDLISHDEMFSDIYKIREIADGLCLEVEGKMVSRTEGNIDDSLIGGNASAEGPEGEGTESTVITGVDIVMNHHLQETSFTKEAYKKYIKDYMKSIKGKLEEQRPERVKPFMTGAAEQIKHILANFKNYQFFIGENMNPDGMVALLDYREDGVTPYMIFFKDGLEMEKC
notes: translationally controlled tumor protein (TCTP); also called GST-tagged TCTP; TCTP-GST protein; source: E. coli, purified (GST fusion protein purification kit)

Assays:
Assay in all cases: pull-down; His-tagged Apaf-1 variants or WDR immobilised on Handee spin column, incubated with TCTP-GST; eluates separated by SDS-PAGE and silver stained
Conditions in all cases: both partners purified
[1] = biological target: T1, APAF-420 (Apaf-1 residues 1-420), His-tagged (UniProt O14727-3 1-420)
T1 construct: Apaf-1 residues 1-420; source: E. coli BL21(DE3)pLysS, purified (Ni Sepharose beads); not shown: His tag, C-terminal, kept
T1 sequence (looked up): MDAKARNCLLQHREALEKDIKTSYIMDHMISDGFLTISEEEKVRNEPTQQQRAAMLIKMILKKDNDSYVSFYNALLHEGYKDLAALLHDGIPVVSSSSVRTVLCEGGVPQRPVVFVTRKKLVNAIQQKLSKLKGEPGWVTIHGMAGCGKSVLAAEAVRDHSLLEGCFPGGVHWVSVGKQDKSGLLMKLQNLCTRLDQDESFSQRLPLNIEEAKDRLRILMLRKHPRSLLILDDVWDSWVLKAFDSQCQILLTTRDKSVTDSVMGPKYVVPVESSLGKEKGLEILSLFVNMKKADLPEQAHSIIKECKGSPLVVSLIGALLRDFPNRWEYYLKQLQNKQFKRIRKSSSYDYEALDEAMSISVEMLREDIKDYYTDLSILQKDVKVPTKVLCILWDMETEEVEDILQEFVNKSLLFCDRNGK

[2] = biological target: T2, APAF-530 (Apaf-1 residues 1-530), His-tagged (UniProt O14727-3 1-530)
T2 construct: Apaf-1 residues 1-530; source: E. coli BL21(DE3)pLysS, purified (Ni Sepharose beads); not shown: His tag, C-terminal, kept
T2 sequence (looked up): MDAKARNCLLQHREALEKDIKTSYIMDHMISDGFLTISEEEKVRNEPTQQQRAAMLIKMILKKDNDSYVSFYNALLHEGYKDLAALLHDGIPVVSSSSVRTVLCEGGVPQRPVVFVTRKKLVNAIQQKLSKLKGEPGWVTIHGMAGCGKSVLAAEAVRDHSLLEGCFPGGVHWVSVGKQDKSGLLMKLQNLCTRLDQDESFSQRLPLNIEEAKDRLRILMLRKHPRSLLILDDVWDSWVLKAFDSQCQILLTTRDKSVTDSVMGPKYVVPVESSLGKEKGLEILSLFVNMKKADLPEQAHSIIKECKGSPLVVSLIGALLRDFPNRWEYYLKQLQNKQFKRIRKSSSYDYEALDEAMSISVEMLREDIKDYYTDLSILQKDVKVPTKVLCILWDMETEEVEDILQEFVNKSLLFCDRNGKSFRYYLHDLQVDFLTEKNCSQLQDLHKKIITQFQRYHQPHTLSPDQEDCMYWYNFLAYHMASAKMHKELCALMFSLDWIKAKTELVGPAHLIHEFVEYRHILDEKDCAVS

[3] = biological target: T3, Full APAF-1 (residues 1-1194), His-tagged (UniProt O14727-3 1-1194)
T3 construct: Apaf-1, full length, printed length 1194 residues (residues 1-1194): CARD 1-97, CED-4 98-412, WD-40 repeats 413-1194; also called full-length Apaf-1; His-Apaf-1; source: E. coli BL21(DE3)pLysS, purified (Ni Sepharose beads); not shown: His tag, C-terminal, kept
T3 sequence (looked up): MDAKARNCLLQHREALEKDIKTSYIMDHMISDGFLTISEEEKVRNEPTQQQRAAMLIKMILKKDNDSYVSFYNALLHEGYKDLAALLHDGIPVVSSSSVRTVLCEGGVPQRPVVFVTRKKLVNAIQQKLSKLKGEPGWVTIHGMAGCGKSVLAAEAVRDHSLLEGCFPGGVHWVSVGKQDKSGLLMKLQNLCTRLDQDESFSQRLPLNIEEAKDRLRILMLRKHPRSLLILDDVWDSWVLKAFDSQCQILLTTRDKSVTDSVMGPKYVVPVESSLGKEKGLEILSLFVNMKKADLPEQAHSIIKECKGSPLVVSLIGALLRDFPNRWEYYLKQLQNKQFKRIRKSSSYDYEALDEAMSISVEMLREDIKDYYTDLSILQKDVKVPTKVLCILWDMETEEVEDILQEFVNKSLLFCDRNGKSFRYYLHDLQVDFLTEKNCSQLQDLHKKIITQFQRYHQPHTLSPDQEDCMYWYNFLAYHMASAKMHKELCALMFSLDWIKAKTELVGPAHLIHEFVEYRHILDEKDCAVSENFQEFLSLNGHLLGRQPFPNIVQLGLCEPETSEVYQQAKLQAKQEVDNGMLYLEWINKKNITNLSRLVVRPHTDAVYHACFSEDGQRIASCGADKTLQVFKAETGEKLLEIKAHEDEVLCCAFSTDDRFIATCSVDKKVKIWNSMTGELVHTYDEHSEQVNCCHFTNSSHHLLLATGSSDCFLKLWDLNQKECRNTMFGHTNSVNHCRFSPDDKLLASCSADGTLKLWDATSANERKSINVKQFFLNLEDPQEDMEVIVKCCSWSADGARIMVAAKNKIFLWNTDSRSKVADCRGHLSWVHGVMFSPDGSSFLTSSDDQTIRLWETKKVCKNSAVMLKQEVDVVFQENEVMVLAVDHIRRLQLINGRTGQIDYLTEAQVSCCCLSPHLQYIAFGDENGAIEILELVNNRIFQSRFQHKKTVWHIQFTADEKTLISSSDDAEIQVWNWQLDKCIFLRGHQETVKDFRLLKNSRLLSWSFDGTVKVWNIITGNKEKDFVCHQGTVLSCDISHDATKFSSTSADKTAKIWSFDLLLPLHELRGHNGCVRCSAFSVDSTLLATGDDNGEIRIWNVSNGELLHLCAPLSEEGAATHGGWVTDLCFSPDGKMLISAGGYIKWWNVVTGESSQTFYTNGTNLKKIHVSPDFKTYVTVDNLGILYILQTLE

[4] = biological target: B1

Binder	binding result [1]	binding result [2]	binding result [3]	binding result [4]
B1	binds	binds	binds	–
APAF-97 (Apaf-1 residues 1-97, CARD), His-tagged (domain or fragment, UniProt O14727 1-97, looked up, Apaf-1 residues 1-97 (caspase recruitment domain, CARD); also called APF-97; CARD of Apaf-1; source: E. coli BL21(DE3)pLysS, purified (Ni Sepharose beads); not shown: His tag, C-terminal, kept) MDAKARNCLLQHREALEKDIKTSYIMDHMISDGFLTISEEEKVRNEPTQQQRAAMLIKMILKKDNDSYVSFYNALLHEGYKDLAALLHDGIPVVSSS	–	–	–	binds
